Columns and labels:
Conditions in all cases: tags: baculovirus-expressed
E2F-1/DP1 heterodimer [1] = molecular target: T1, E2F-1/DP1 heterodimer (UniProt Q01094;Q14186 Q01094:1-437,Q14186:1-410); experiment: EMSA; stated as similar results to first mutation
E2F-1/DP1 heterodimer [2] = molecular target: T1, E2F-1/DP1 heterodimer; experiment: EMSA
E2F-1/DP1 heterodimer [3] = molecular target: T1, E2F-1/DP1 heterodimer; experiment: EMSA; mutation abolishes binding; promoter activity reduced at least 2-fold but not activation by E2F-1
E2F-1/DP1 heterodimer [4] = molecular target: T1, E2F-1/DP1 heterodimer; experiment: EMSA; mutation abolished E2F-1 binding; promoter activity reduced about 2-fold and E2F-1 activation suppressed

T1 sequence (Q01094 whole entry, chain 1 of 2): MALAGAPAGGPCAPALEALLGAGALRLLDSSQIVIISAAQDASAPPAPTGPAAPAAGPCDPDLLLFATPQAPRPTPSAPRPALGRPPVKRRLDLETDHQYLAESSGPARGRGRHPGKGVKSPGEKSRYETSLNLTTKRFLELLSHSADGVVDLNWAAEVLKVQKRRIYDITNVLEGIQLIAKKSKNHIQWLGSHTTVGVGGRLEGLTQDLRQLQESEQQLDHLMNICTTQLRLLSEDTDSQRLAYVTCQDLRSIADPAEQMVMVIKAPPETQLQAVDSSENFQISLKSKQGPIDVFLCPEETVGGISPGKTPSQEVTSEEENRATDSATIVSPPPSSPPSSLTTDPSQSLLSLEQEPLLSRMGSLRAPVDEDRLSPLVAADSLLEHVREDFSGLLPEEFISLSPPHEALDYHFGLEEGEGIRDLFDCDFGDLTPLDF
T1 sequence (Q14186 whole entry, chain 2 of 2): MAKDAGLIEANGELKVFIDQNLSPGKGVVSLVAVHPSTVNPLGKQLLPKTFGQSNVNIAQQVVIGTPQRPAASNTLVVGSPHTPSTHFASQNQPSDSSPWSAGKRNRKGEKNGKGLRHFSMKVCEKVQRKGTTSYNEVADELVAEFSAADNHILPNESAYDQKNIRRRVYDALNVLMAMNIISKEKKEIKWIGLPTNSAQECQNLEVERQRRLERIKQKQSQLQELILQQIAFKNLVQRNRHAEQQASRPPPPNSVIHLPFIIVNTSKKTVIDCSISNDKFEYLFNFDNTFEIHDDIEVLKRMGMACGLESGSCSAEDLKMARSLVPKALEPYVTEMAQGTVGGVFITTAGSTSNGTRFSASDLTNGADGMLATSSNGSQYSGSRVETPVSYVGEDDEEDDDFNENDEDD

B1: region 2 mutant 2 (dsDNA)
DNA 1: AATCCATCCCGGCACCTCAGG
DNA 2: CCTGAGGTGCCGGGATGGATT
Does B1 bind (E2F-1/DP1 heterodimer [1])?
Result: no binding

B2: region 2 mutant 4 (dsDNA)
DNA 1: AATCCCGCCCGGCGCATCAGG
DNA 2: CCTGATGCGCCGGGCGGGATT
Does B2 bind (E2F-1/DP1 heterodimer [1])?
Result: no binding

B3: region 2 mutant 3 (dsDNA)
DNA 1: AATCCCGCCCGGATCCGCAGG
DNA 2: CCTGCGGATCCGGGCGGGATT
Does B3 bind (E2F-1/DP1 heterodimer [1])?
Result: no binding

B4: Skp2 promoter region 3 (dsDNA)
DNA 1: AGAGCGGGATGCAGAACTCCGCGCGCGCGGTGG
DNA 2: CCACCGCGCGCGCGGAGTTCTGCATCCCGCTCT
Does B4 bind (E2F-1/DP1 heterodimer [2])?
Result: binds

B5: region 2 mutant 1 (dsDNA)
DNA 1: AATCCCACCCGGCACCTCAGG
DNA 2: CCTGAGGTGCCGGGTGGGATT
Does B5 bind (E2F-1/DP1 heterodimer [3])?
Result: no binding

B6: Skp2 promoter region 2 (dsDNA)
DNA 1: AATCCCGCCCGGCGCCGCAGG
DNA 2: CCTGCGGCGCCGGGCGGGATT
Does B6 bind (E2F-1/DP1 heterodimer [2])?
Result: binds

B7: Skp2 promoter region 4 (dsDNA)
DNA 1: AGTTCGCGGGTCC
DNA 2: GGACCCGCGAACT
Does B7 bind (E2F-1/DP1 heterodimer [2])?
Result: binds

B8: Skp2 promoter region 1 (dsDNA)
DNA 1: GCTCCGGGAAAA
DNA 2: TTTTCCCGGAGC
Does B8 bind (E2F-1/DP1 heterodimer [2])?
Result: no binding

B9: region 3 mutant (dsDNA)
DNA 1: AGAGCATGCAGAACTCCGCACGAGCGGTGG
DNA 2: CCACCGCTCGTGCGGAGTTCTGCATGCTCT
Does B9 bind (E2F-1/DP1 heterodimer [4])?
Result: no binding

Reference: US20030109481, “Tumour-cell specific gene expression and its use in cancer therapy” (published 2003)
